For one molecule, Kd and dH results are on record in publication PMC5995566 (Biochemistry, 2017).

The target of the experiment is T1, human S100A5 (human).
T1 sequence (P33763 1-92, looked up): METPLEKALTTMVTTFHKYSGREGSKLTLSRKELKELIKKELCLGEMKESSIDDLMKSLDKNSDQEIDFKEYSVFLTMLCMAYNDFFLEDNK
Briefly: ITC. (In general: Isothermal titration calorimetry measures the heat released or taken up as one component is titrated into another.)

As to RRLLFYKYVYKR [12 amino acid fragment of the protein NCX1], binding was characterised by a dissociation constant (Kd) of 18 ± 4 µM and the dH is -15.1 ± 4.18 kJ/mol.

By Kd is commonly meant the concentration at which binding is half-saturated. Lower therefore signals higher affinity.
